One may read the IC50 as the concentration needed to halve the response being measured.

In this experiment the target is ALPP/ALPPL2 on ALPP/ALPPL2 positive cancer cells (MKN1, NCI-H1651, NCI-N87, Caov-3, HPAC). Briefly: cell-based or functional assay.

B1: D10 A06-hFc (S239/442C T366Y/Y407T), [G4S]3 linker, MC-vc-PAB-MMAE conjugate, #633 (Fc fusion, DAR 4)
chain 1: QVQLVESGGGLVQPGGSLRLSCAASGSIFSVNTMGWYRQAPGKQRDLVAVATSGGTIHYADSVKGRFTISRDNAKNTVYLQMNSLKPEDTAVYYCNLVVPYGMIAGDHDYWGQGTKVTVSSGGGGSGGGGSGGGGSEPKSSDKTHTCPPCPAPELLGGPCVFLFPPKPKDTLMISRTPEVTCVVVDVSHEDPEVKFNWYVDGVEVHNAKTKPREEQYNSTYRVVSVLTVLHQDWLNGKEYKCKVSNKALPAPIEKTISKAKGQPREPQVYTLPPSRDELTKNQVSLYCLVKGFYPSDIAVEWESNGQPENNYKTTPPVLDSDGSFFLYSKLTVDKSRWQQGNVFSCSVMHEALHNHYTQKSLCLSPGK
chain 2: QVHLVESGGGLVQAGGSLRLSCAASGRTFLSMGWFRQAPGKEREFVAAISWTGGSTGYADSVKGRFTISRESDKETMYLQMNSLKPEDTAVYYCAARGDVYYGGDDATRYKYWGQGTQVTVSSGGGGSGGGGSGGGGSEPKSSDKTHTCPPCPAPELLGGPCVFLFPPKPKDTLMISRTPEVTCVVVDVSHEDPEVKFNWYVDGVEVHNAKTKPREEQYNSTYRVVSVLTVLHQDWLNGKEYKCKVSNKALPAPIEKTISKAKGQPREPQVYTLPPSRDELTKNQVSLTCLVKGFYPSDIAVEWESNGQPENNYKTTPPVLDSDGSFFLTSKLTVDKSRWQQGNVFSCSVMHEALHNHYTQKSLCLSPGK
modifications: here or on the partner: MC-vc-PAB-MMAE on Cys of S239C and S442C (EU numbering)
Regarding B1, the % viability remaining at 96 h, MKN1 cells came to 27.9%; the % viability remaining at 96 h, NCI-H1651 cells was found to be 25.4%; the % viability remaining at 96 h, NCI-N87 cells was 27.3%; the IC50 at 96 h, cell-killing of MKN1 cells was 1.4 nM. The molecule also returned an IC50 at 96 h, cell-killing of NCI-H1651 cells of 5.4 nM and an IC50 at 96 h, cell-killing of NCI-N87 cells of 4.9 nM.

B2: D10 E10-hFc (S239/442C T366Y/Y407T), [G4S]3 linker, MC-vc-PAB-MMAE conjugate, #636 (Fc fusion, DAR 4)
chain 1: QVQLVESGGGLVQPGGSLRLSCAASGSIFSVNTMGWYRQAPGKQRDLVAVATSGGTIHYADSVKGRFTISRDNAKNTVYLQMNSLKPEDTAVYYCNLVVPYGMIAGDHDYWGQGTKVTVSSGGGGSGGGGSGGGGSEPKSSDKTHTCPPCPAPELLGGPCVFLFPPKPKDTLMISRTPEVTCVVVDVSHEDPEVKFNWYVDGVEVHNAKTKPREEQYNSTYRVVSVLTVLHQDWLNGKEYKCKVSNKALPAPIEKTISKAKGQPREPQVYTLPPSRDELTKNQVSLYCLVKGFYPSDIAVEWESNGQPENNYKTTPPVLDSDGSFFLYSKLTVDKSRWQQGNVFSCSVMHEALHNHYTQKSLCLSPGK
chain 2: QVQLVESGGGLVQAGGSLRLSCAVSGRALSDYNIGWFRQAPGKEREFVARKTWDGSSTRYDDSVKGRFTVSIEDAKNTAYLQMSSLKTEDTAVYYCAAGRYSRARGWEYDYWGQGTQVTVSSGGGGSGGGGSGGGGSEPKSSDKTHTCPPCPAPELLGGPCVFLFPPKPKDTLMISRTPEVTCVVVDVSHEDPEVKFNWYVDGVEVHNAKTKPREEQYNSTYRVVSVLTVLHQDWLNGKEYKCKVSNKALPAPIEKTISKAKGQPREPQVYTLPPSRDELTKNQVSLTCLVKGFYPSDIAVEWESNGQPENNYKTTPPVLDSDGSFFLTSKLTVDKSRWQQGNVFSCSVMHEALHNHYTQKSLCLSPGK
modifications: here or on the partner: MC-vc-PAB-MMAE on Cys of S239C and S442C (EU numbering)
Molecule B2 displayed a % viability remaining at 96 h, MKN1 cells of 30%; a % viability remaining at 96 h, NCI-H1651 cells of 28.9%; a % viability remaining at 96 h, NCI-N87 cells of 26.2%; an IC50 at 96 h, cell-killing of MKN1 cells of 1.9 nM. The molecule further yielded an IC50 at 96 h, cell-killing of NCI-H1651 cells of 0.9 nM and an IC50 at 96 h, cell-killing of NCI-N87 cells of 2.1 nM.

B3: A06 E06-hFc (S239/442C T366Y/Y407T), [G4S]3 linker, MC-vc-PAB-MMAE conjugate, #639 (Fc fusion, DAR 4)
chain 1: QVHLVESGGGLVQAGGSLRLSCAASGRTFLSMGWFRQAPGKEREFVAAISWTGGSTGYADSVKGRFTISRESDKETMYLQMNSLKPEDTAVYYCAARGDVYYGGDDATRYKYWGQGTQVTVSSGGGGSGGGGSGGGGSEPKSSDKTHTCPPCPAPELLGGPCVFLFPPKPKDTLMISRTPEVTCVVVDVSHEDPEVKFNWYVDGVEVHNAKTKPREEQYNSTYRVVSVLTVLHQDWLNGKEYKCKVSNKALPAPIEKTISKAKGQPREPQVYTLPPSRDELTKNQVSLYCLVKGFYPSDIAVEWESNGQPENNYKTTPPVLDSDGSFFLYSKLTVDKSRWQQGNVFSCSVMHEALHNHYTQKSLCLSPGK
chain 2: QVHLVESGGGLVQAGGSLRLSCAASRRSFSEYAMGWFRQAPGKEREFVAAIGWSGVIEYADSVKGRFTISRDNAKDTVYLQMNSLKPEDTAVYYCAAGLGIRVVSQTPAYWGQGTQVTVSSGGGGSGGGGSGGGGSEPKSSDKTHTCPPCPAPELLGGPCVFLFPPKPKDTLMISRTPEVTCVVVDVSHEDPEVKFNWYVDGVEVHNAKTKPREEQYNSTYRVVSVLTVLHQDWLNGKEYKCKVSNKALPAPIEKTISKAKGQPREPQVYTLPPSRDELTKNQVSLTCLVKGFYPSDIAVEWESNGQPENNYKTTPPVLDSDGSFFLTSKLTVDKSRWQQGNVFSCSVMHEALHNHYTQKSLCLSPGK
modifications: here or on the partner: MC-vc-PAB-MMAE on Cys of S239C and S442C (EU numbering)
As for B3, the % viability remaining at 96 h, MKN1 cells was 30.6%; the % viability remaining at 96 h, NCI-H1651 cells came out at 28%; the % viability remaining at 96 h, NCI-N87 cells is 27.8%; the IC50 at 96 h, cell-killing of MKN1 cells stood at 2.3 nM. The molecule further came in with an IC50 at 96 h, cell-killing of NCI-H1651 cells of 0.9 nM and an IC50 at 96 h, cell-killing of NCI-N87 cells of 12.9 nM.

B4: D10 E06-hFc (S239/442C T366Y/Y407T), [G4S]3 linker, MC-vc-PAB-MMAE conjugate, #634 (Fc fusion, DAR 4)
chain 1: QVQLVESGGGLVQPGGSLRLSCAASGSIFSVNTMGWYRQAPGKQRDLVAVATSGGTIHYADSVKGRFTISRDNAKNTVYLQMNSLKPEDTAVYYCNLVVPYGMIAGDHDYWGQGTKVTVSSGGGGSGGGGSGGGGSEPKSSDKTHTCPPCPAPELLGGPCVFLFPPKPKDTLMISRTPEVTCVVVDVSHEDPEVKFNWYVDGVEVHNAKTKPREEQYNSTYRVVSVLTVLHQDWLNGKEYKCKVSNKALPAPIEKTISKAKGQPREPQVYTLPPSRDELTKNQVSLYCLVKGFYPSDIAVEWESNGQPENNYKTTPPVLDSDGSFFLYSKLTVDKSRWQQGNVFSCSVMHEALHNHYTQKSLCLSPGK
chain 2: QVHLVESGGGLVQAGGSLRLSCAASRRSFSEYAMGWFRQAPGKEREFVAAIGWSGVIEYADSVKGRFTISRDNAKDTVYLQMNSLKPEDTAVYYCAAGLGIRVVSQTPAYWGQGTQVTVSSGGGGSGGGGSGGGGSEPKSSDKTHTCPPCPAPELLGGPCVFLFPPKPKDTLMISRTPEVTCVVVDVSHEDPEVKFNWYVDGVEVHNAKTKPREEQYNSTYRVVSVLTVLHQDWLNGKEYKCKVSNKALPAPIEKTISKAKGQPREPQVYTLPPSRDELTKNQVSLTCLVKGFYPSDIAVEWESNGQPENNYKTTPPVLDSDGSFFLTSKLTVDKSRWQQGNVFSCSVMHEALHNHYTQKSLCLSPGK
modifications: here or on the partner: MC-vc-PAB-MMAE on Cys of S239C and S442C (EU numbering)
In turn, B4 had a % viability remaining at 96 h, MKN1 cells of 31.1%; a % viability remaining at 96 h, NCI-H1651 cells of 28.5%; a % viability remaining at 96 h, NCI-N87 cells of 27.6%; an IC50 at 96 h, cell-killing of MKN1 cells of 2.6 nM. The IC50 at 96 h, cell-killing of NCI-H1651 cells worked out at 1.1 nM and the IC50 at 96 h, cell-killing of NCI-N87 cells was 2.4 nM.

B5: D10 F05-hFc (S239/442C T366Y/Y407T), [G4S]3 linker, MC-vc-PAB-MMAE conjugate, #637 (Fc fusion, DAR 4)
chain 1: QVQLVESGGGLVQPGGSLRLSCAASGSIFSVNTMGWYRQAPGKQRDLVAVATSGGTIHYADSVKGRFTISRDNAKNTVYLQMNSLKPEDTAVYYCNLVVPYGMIAGDHDYWGQGTKVTVSSGGGGSGGGGSGGGGSEPKSSDKTHTCPPCPAPELLGGPCVFLFPPKPKDTLMISRTPEVTCVVVDVSHEDPEVKFNWYVDGVEVHNAKTKPREEQYNSTYRVVSVLTVLHQDWLNGKEYKCKVSNKALPAPIEKTISKAKGQPREPQVYTLPPSRDELTKNQVSLYCLVKGFYPSDIAVEWESNGQPENNYKTTPPVLDSDGSFFLYSKLTVDKSRWQQGNVFSCSVMHEALHNHYTQKSLCLSPGK
chain 2: QVQLVESGGGLVQAGGSLRLSCAASGRAFGDYNIGWFRQAPGKEREFVARRTWDGSSTRYDDSVKGRFTVSIDNAKNTAYLQMNSLKTEDTAVYYCAAGRYSRVRGWEYDYWGQGTQVTVSSGGGGSGGGGSGGGGSEPKSSDKTHTCPPCPAPELLGGPCVFLFPPKPKDTLMISRTPEVTCVVVDVSHEDPEVKFNWYVDGVEVHNAKTKPREEQYNSTYRVVSVLTVLHQDWLNGKEYKCKVSNKALPAPIEKTISKAKGQPREPQVYTLPPSRDELTKNQVSLTCLVKGFYPSDIAVEWESNGQPENNYKTTPPVLDSDGSFFLTSKLTVDKSRWQQGNVFSCSVMHEALHNHYTQKSLCLSPGK
modifications: here or on the partner: MC-vc-PAB-MMAE on Cys of S239C and S442C (EU numbering)
B5: the % viability remaining at 96 h, MKN1 cells is 28.1%; the % viability remaining at 96 h, NCI-H1651 cells was 28%; the % viability remaining at 96 h, NCI-N87 cells was found to be 28.9%; the IC50 at 96 h, cell-killing of MKN1 cells was 1.3 nM. Further, the IC50 at 96 h, cell-killing of NCI-H1651 cells is 1.2 nM and the IC50 at 96 h, cell-killing of NCI-N87 cells stood at 5.1 nM.

B6: A06 E10-hFc (S239/442C T366Y/Y407T), [G4S]3 linker, MC-vc-PAB-MMAE conjugate, #664 (Fc fusion, DAR 4)
chain 1: QVHLVESGGGLVQAGGSLRLSCAASGRTFLSMGWFRQAPGKEREFVAAISWTGGSTGYADSVKGRFTISRESDKETMYLQMNSLKPEDTAVYYCAARGDVYYGGDDATRYKYWGQGTQVTVSSGGGGSGGGGSGGGGSEPKSSDKTHTCPPCPAPELLGGPCVFLFPPKPKDTLMISRTPEVTCVVVDVSHEDPEVKFNWYVDGVEVHNAKTKPREEQYNSTYRVVSVLTVLHQDWLNGKEYKCKVSNKALPAPIEKTISKAKGQPREPQVYTLPPSRDELTKNQVSLYCLVKGFYPSDIAVEWESNGQPENNYKTTPPVLDSDGSFFLYSKLTVDKSRWQQGNVFSCSVMHEALHNHYTQKSLCLSPGK
chain 2: QVQLVESGGGLVQAGGSLRLSCAVSGRALSDYNIGWFRQAPGKEREFVARKTWDGSSTRYDDSVKGRFTVSIEDAKNTAYLQMSSLKTEDTAVYYCAAGRYSRARGWEYDYWGQGTQVTVSSGGGGSGGGGSGGGGSEPKSSDKTHTCPPCPAPELLGGPCVFLFPPKPKDTLMISRTPEVTCVVVDVSHEDPEVKFNWYVDGVEVHNAKTKPREEQYNSTYRVVSVLTVLHQDWLNGKEYKCKVSNKALPAPIEKTISKAKGQPREPQVYTLPPSRDELTKNQVSLTCLVKGFYPSDIAVEWESNGQPENNYKTTPPVLDSDGSFFLTSKLTVDKSRWQQGNVFSCSVMHEALHNHYTQKSLCLSPGK
modifications: here or on the partner: MC-vc-PAB-MMAE on Cys of S239C and S442C (EU numbering)
B6 gave a % viability remaining at 96 h, MKN1 cells of 29.7%; a % viability remaining at 96 h, NCI-H1651 cells of 27.2%; a % viability remaining at 96 h, NCI-N87 cells of 28.7%; an IC50 at 96 h, cell-killing of MKN1 cells of 0.9 nM. The molecule further came in with an IC50 at 96 h, cell-killing of NCI-H1651 cells of 0.6 nM and an IC50 at 96 h, cell-killing of NCI-N87 cells of 4.7 nM.
